The data set deals with T1, TtHU (Thermus thermophilus, UniProt P19436 2-97).
T1 sequence: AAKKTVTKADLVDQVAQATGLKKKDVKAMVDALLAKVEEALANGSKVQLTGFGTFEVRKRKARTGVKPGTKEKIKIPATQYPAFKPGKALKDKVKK
Put plainly: EMSA; 1 uM DNA; EMSA: 20 mM Tris-HCl pH 7.5, 100 mM KCl, 37 °C, 1 h; CD: 20 mM phosphate pH 7.2, 100 mM KCl, 20 °C, 10 uM TtHU. The following applies: protein: recombinant, tags: none stated (pET-11a), chain copies: 2.

B1: oligo CD (dsDNA)
DNA 1: ATGACAACTAAAGCAACACCCAAAACA
DNA 2: TGTTTTGGGTGTTGCTTTAGTTGTCAT
In the case of B1, under “duplex of complementary oligos”, the binding result was “binds”. For GGCCCCAGTGCTGCAATGATACCGCGAGAC (ssDNA) [oligo A], the binding result (single strand) is listed as “binds”.

B2: oligo AB (dsDNA)
DNA 1: GGCCCCAGTGCTGCAATGATACCGCGAGAC
DNA 2: GTCTCGCGGTATCATTGCAGCACTGGGGCC
For B2, where the note is “duplex of complementary oligos”, the binding result is “binds”.

Turning to TGTTTTGGGTGTTGCTTTAGTTGTCAT (ssDNA) [oligo D], the binding result (single strand) was “binds”. Still for that read-out and setting: under ATGACAACTAAAGCAACACCCAAAACA (ssDNA) [oligo C] stands “binds”; under GTCTCGCGGTATCATTGCAGCACTGGGGCC (ssDNA) [oligo B], “binds”.

The values above are taken from article PMC5613972, “A specific single-stranded DNA induces a distinct conformational change in the nucleoid-associated protein HU”.
